The results in this text go back to patent US20220033515A1.

Assay [1] addresses human vascular endothelial growth factor (hVEGF) (human) (UniProt P15692). Kind of assay: blocking ELISA: biotin-VEGF with hIgG, capture on Avastin. For orientation: An ELISA detects its analyte on a solid surface through an enzyme-linked reagent.
The target in the next assay is hVEGF165 (human) (UniProt P15692). Kind of assay: competition ELISA of hIgG, hVEGF165; axis 'Conc (nM)'.
Chain of hVEGF165 (human) (P15692 other isoform, or with tags, fused parts or gaps limits assumed): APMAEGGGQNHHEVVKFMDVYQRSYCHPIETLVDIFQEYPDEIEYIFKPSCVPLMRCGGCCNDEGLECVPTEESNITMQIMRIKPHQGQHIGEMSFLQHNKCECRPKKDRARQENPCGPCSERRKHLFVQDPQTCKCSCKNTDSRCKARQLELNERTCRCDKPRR

Chain of human vascular endothelial growth factor (hVEGF) (human) (P15692 other isoform, or with tags, fused parts or gaps limits assumed): as above

On to G6 hIgG (antibody), for which the IC50 (read off the curve) (in assay [1]; with hVEGF165 (human)) was 3 nM each time.
